Data as given in US20260097149A1 (RESEARCH FOUNDATION FOR THE STATE UNIVERSITY OF NEW YORK, published 2026).

Biological target: T1, integrin α4β1 (human, UniProt P13612 34-1032; P05556 21-798)
T1 construct: whole, on cells; Present on human PBMNC isolated from blood and on HUVEC; also called α4β1 integrin; CD49d (α4β1 integrin)
Test: capture of PBMNC on immobilised H2R5 against blocking antibody and heparin-only control

T1 sequence (P13612 34-1032, chain 1 of 2): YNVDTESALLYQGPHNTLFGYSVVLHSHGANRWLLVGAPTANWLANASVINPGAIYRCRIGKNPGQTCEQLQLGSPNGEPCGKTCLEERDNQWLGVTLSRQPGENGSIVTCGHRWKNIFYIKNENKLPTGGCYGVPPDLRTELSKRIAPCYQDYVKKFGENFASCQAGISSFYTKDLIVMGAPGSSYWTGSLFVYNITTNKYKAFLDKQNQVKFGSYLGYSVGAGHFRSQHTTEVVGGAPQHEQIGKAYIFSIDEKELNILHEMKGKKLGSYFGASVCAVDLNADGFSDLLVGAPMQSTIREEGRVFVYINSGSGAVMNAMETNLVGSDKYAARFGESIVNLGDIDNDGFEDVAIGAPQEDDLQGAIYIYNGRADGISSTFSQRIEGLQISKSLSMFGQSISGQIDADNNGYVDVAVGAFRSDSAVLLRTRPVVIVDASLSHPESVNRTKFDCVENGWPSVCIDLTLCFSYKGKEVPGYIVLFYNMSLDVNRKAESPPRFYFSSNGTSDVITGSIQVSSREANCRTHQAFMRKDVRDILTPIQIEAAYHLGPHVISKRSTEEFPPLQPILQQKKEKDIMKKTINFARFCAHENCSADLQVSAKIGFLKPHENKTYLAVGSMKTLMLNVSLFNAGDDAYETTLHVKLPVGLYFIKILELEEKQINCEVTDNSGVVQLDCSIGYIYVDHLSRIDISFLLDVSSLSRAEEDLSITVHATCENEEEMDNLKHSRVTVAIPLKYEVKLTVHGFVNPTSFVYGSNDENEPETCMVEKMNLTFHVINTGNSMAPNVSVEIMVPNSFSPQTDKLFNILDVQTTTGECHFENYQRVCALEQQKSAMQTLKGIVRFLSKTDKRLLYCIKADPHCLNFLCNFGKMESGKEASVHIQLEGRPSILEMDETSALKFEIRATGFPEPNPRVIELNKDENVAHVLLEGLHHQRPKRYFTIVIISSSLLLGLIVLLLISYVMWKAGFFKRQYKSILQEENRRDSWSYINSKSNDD
T1 sequence (P05556 21-798, chain 2 of 2): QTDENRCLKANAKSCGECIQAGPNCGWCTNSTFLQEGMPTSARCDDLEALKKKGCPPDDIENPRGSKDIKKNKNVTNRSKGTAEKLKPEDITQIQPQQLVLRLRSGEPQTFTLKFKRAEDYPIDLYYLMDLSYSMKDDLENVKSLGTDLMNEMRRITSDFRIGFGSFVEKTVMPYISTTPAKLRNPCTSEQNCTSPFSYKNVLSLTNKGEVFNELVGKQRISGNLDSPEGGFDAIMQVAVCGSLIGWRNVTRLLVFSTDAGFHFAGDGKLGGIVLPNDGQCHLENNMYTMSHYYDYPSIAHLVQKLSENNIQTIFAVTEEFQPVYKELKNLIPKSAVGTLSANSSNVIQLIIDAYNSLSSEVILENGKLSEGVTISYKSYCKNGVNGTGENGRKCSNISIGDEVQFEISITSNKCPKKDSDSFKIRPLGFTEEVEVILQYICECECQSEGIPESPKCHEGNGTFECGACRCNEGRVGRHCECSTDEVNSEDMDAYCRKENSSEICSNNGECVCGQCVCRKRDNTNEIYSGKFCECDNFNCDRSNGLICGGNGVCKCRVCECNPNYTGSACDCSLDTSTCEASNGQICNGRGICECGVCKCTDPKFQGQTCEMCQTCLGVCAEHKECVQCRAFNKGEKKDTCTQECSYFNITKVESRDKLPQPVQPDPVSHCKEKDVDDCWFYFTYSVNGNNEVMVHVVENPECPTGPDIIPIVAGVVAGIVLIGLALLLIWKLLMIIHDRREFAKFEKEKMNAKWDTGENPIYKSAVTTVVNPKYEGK

B1: H2R5 fusion protein, H2-(GGGS-…)5 (designed binder)
chain: MGSSHHHHHHSSGLVPRGSHMASMTGGQQMGRGSAIPAPTDLKFTQGTPTSLSAQWTPPNVQLTGYRVRVTPKEKTGPMKEINLAPDSSSVVVSGLMVATKYEVSVYALKDTLTSRPAQGVVTTLENVSPPRRARVTDATETTITISWRTKTETITGFQVDAVPANGQTPIQRTIKPDVRSYTITGLQPGTDYKIYLYTLNDNARSSPVVIDASTAIDAPSNLRFLATTPNSLLVSWQPPRARITGYIIKYEKPGSPPREVVPRPRPGVTEATITGLEPGTEYTIYVIALKNNQKSEPLIGHKLGGGGSHIPREDVDYHGGGGSHIPREDVDYHGGGGSHIPREDVDYHGGGGSHIPREDVDYHGGGGSHIPREDVDYHLEHHHHHH
notes: no residue limits are stated; also called fusion peptide (H2R5); His tagged fusion protein
  binding result: binds
